The record followed here is the nanobody polyreactivity screen of Harvey et al. (2022).

A short description of this data set: yeast display, Sf9 membrane polyspecificity reagent, FACS + sequencing; frameworks hold sequencing errors. The essentials: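 Galactose induction of a Saccharomyces cerevisiae BJ5465 synthetic nanobody display library ran 36–48 hours. The cells were then stained for 1 hour at 4 °C with 10% biotinylated, detergent-solubilized Sf9 membrane reagent, pulled down on streptavidin microbeads and FACS-sorted into low and high (top ~1%) gates on expression and reagent-binding fluorescence. Labels for polyreactivity follow the gate of origin.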
Turning to “QVQLVESGGGLVQAGGSLRLSCAASGFTFYYYTMGWYRQAPGKERELVAAITISGGSTYYADSVKGRFTISRDNAKNTVYLQMNSLKPEDSAVYYCNADYQWYLGGYDFWGQGTQVTVSS”, the “polyreactivity (PSR sort gate)” value is reported as “high polyreactivity”.
The entry for “QVQLVESGGGLVQAGVSLRLSCAASGLTFSKYAMGWYREAPGNERDLVAAITRGDRTYYADSVKGRFTISRDNAKNTVYLHMNSLKPADTAVYYCAARQYYWGQGTQVTVSS” is “high polyreactivity”.
In the case of “QVQLVESGGGLVQAGGSLRLSCAASGSIFESYAMGWYRQAPGKERELVAAIDYSGGSTYYADSVKGRFTISRDNAKNSVYLQMNSLKREDTAVYYCAAGYRTYYGYRYGYWGQGTQVTVSS”, the “polyreactivity (PSR sort gate)” value is on record as “high polyreactivity”.
With “QVQLVESGGGLVQAGGSLRLSCAASGSIFIYNAMGWYRQAPGKERELVAAITWSGGRTYYADSVKGRFTISRDNAKNSVYLQMNSLKPEDTAVYYCNAVWTDAYYSYGYDYWGQGTQVTVSS”, the “polyreactivity (PSR sort gate)” value is “low polyreactivity”.
Take “QVQLVESGGGLVQAGGSLRLICAASGYTLGPYAMGWYRQAPGKERELVAAITSGGSTYYADSVKGRFPISRDNAKHTVYLQMNSLKPEDSAVYYCNKDKGWLAHSRIWLWYDYWGQGTQVTVSS”: the “polyreactivity (PSR sort gate)” value was “low polyreactivity”.
The value for “QVQLVESGGGLVQAGGSLRISSAASGRTFVNYTMGWYRQAPGKERELVAAITSSGGSTYYADSVKGRFTISRDNAKNTVYLQMNSLKPEDTAVYYCASAIFDLSFWLYYWGQGTQVTVSS” was “low polyreactivity”; that for “QDQLVESGGGLVQAGGSLRLSCAASGSIFGPYAMGWYRQAPGKERELVAAITYRGDSTYYADSVKGRFTISRDYAKNTVYLQMNSLKPEDTAVYYCAAEYIYDLWEEYWGQGTQVTVSS” was “high polyreactivity”; that for “QVQLVESGGGLVQAGGSLRLSCAASGSIFLNNAMGWYSQAPGKERELVAAITRNVGSTYYADSVKGRFTISRDNAKNTVYLQMNSMKPEATAVYYCAADRRRRYDYWGQGTQVTVSS” was “low polyreactivity”.
As to “QVQLVESGGGLVQAGGSLRLSCAASGITFSYNVMGWYRQAPGKERELVAAISDGGSTYYADSVKGRFTISRDNAKNTVYLQMNSLKPEDTAVYYCAADSPVDYLYALYLYVRDDYWGQGTQVTVSS”, the “polyreactivity (PSR sort gate)” value is listed as “low polyreactivity”.
For “QVQLVESGGGLVQAGGSLRLSCAASGITLYGYAMGWYRQAPGKEREFVAAISRSGDRTYYADSVKGRFTISRDNAKNTVYLQMNSLKPEDTAVYYCNAWRYDYWGQGTQVTVSS”, the “polyreactivity (PSR sort gate)” value was “high polyreactivity”.
In the case of “QVQLVESGGGLVQEGGSLRLSCAASVFIIDYYAMGWYRQAPGKERELVASISYNSVSTTYADSVKGRFTISRDNAKNTVYLQMNSLKPEDTAVYYCAATSWYWAYTYYYWGQGTQVTVSS”, the “polyreactivity (PSR sort gate)” value was “low polyreactivity”.
The value for “QVQLVESGGGLVQAGGSLRLICAASGSTLYTYAMGWYRQAPGKERELVATISWSGSSTYYADSVKGRFTISRDNAKNTVYLQMNSLKPEDTAVYYCAAPYHYWYRLDYWGQGTQVTVSS” was “high polyreactivity”; that for “QVQLVESGGGLVQAGGSLRLSCAASGRIFNRYAMGWYSQAPGKERELVARITSSGSTNYADSVKGRFTISRDNAKNTVYLQMNSLKPEDTAVYYCAARKLFIPKYYYWGQGTQVTVSS” was “high polyreactivity”; that for “QVQLVESGGGLVQAGGSLRLSCAASGRTFRYYAMGWYRQAPGKEREFVASIRRGGGSTYYADSVKGRFTISRDNAKNTVYLQMNSLKPEDTAVYYCAAQPYTLSLFRLNYDYWGQGTQVTVSS” was “low polyreactivity”.
Turning to “QVQLVESGGGLVQAGGSLRLSCAASGSTFYANAMGWYRQAPGKERELVADISFSGASTFYADSVKGRFTISRDNAKNTVYLQMNSLKPEDTAVYYCATDNPSVVGFDYWGQGTQVTVSS”, the “polyreactivity (PSR sort gate)” value is recorded as “low polyreactivity”.
For the sequence “QVQLVESGGGLVQAGGSLRLSCAASGNTFRYYAMGWYRQAPGKERELVAAISESGGRTYYADSVKGRFTISRDNAKNTVYLQMNSLNPEDTAVYYCAASRWARTWWYGYNYWGQGTQVTVSS”, the “polyreactivity (PSR sort gate)” value was “high polyreactivity”.
Regarding “QVQLVESGGGLVQAGGSLRLSCAASGFIFVKNAMGWYRQAPGKERELVAVISTRGGRTYYADSVKGRFTISRDNAKNTVYLQMNSLKPEDTAVYYCAADIWFYTYYEYDYWGQGTQVTVSS”, the “polyreactivity (PSR sort gate)” value is reported as “high polyreactivity”.
For the sequence “QVQLVESAGGLVQAGGSLRLSCAASGSILYKNAMGWYRQAPGKERELVAAIRSGGSTYYADSVKGRFTISRDNAINTVYLQMNSLKPEDTAVYYCYARTFSHGRYDYWGQGTQVTVSS”, the “polyreactivity (PSR sort gate)” value is “low polyreactivity”.
The entry for “QVQLVESGGGLVQAGGSLRLSCAASGRIFKGNGMGWYRQAPGKERELVAAISSGGTYYADSVKGRFTISRDNAKNTVYLQMNSLKPEDTAVYYCAAQHRGVQVTFGEYDYWGQGTQVTVSS” is “low polyreactivity”; for “QVQLVESGGGLVQAGGSLRLSCAASGITFYGYTMGWYRQAPGKERELVAAITSGGNTYYADSVKGRFTISRDNAKNPVYLQMNCLKPEDTAVYYCAARRYCYTSITWCDYWRQGTQVTVSS” it is “high polyreactivity”.
Regarding “QVQLVESGGGLVQAGGSLRLSCAASGCTFVSYAMGWYRQEPGKEREFVAAIAWTGGSTRYADSVKGRFTISRDNAKNTVYLQMNSLKPEDTAVYYCAARYRHYLYGYDYWGQGTQVTLSS”, the “polyreactivity (PSR sort gate)” value is recorded as “low polyreactivity”.
Regarding “QVQVVESGGGLVQAGGSLRLSCAASGGTFGGYAMGWYRQAPGKERELVAAISSGGSTYYADSVKGRFTISRDNAKNTLYLQMNSLKPEDTAVYYCAAETVLGYWYYRKYYYWGQGTQVTVSS”, the “polyreactivity (PSR sort gate)” value is “high polyreactivity”.
“QVQLVESGGGLVQAGGSLRLSCAASGSIFYPYAMGWSSKAPRKERELVARISSAGGTYYADSVKGRFTISRDNAKNTVYLQMNSLKPEDTAVYYCAAQARYRYYYWGQGTQVTVSS”: the “polyreactivity (PSR sort gate)” value is “high polyreactivity”.
For “QVQLVESGGGLVQAGGSLRLSCAASGRIFYNYGMGWYRQAPGKERELVAAISSSGGSTSYADSVKGRFTISRDNAKNTVYLQMNSLKPEDTAVYYCAASWPRWWRFGYWGQGTQVTVSS”, the “polyreactivity (PSR sort gate)” value is given as “low polyreactivity”.
In the case of “QVQLVESGGGLVQAGGSLRLSCAASGRIFVPYAMGWYRQAPGKERELVAAISRNTGSTYYADSVKGRFTISRDNAKNTVYLQMNSLKPEDTAVYYCAAGSRVRYDGGYKINGYWGQGTQVTVSS”, the “polyreactivity (PSR sort gate)” value is “high polyreactivity”.
The entry for “QVQLVESGGGLVQAGGSLRLSCAASGSIFLQYAMGWYRQAPGKERELVAAISWSGGSTYYADSVKGRFTISRDNAKNTVYVQMNSLKPEDTAVYYCAAPITPYRHYRMDYWGQGTQVTVSS” is “low polyreactivity”; for “QDQLVESGGGLVQAGGSLRLSCAASGSTLTRNAMGWYRQAPGKERELVAAITSGGRTKYADSVKGRFTISRDNAKNTVYLQMNSLKPEDTAVYYCAKGGPPGQRGYDYWGQGTQVTVSS” it is “high polyreactivity”; for “QVQLVESGGGLVQAGGSLRLSCAATGRTFTYYALGGYRQAPGKQRELVAAISTSGGSTYYADSVKGRFTISRDNAKNTVYLQMNSLKPEDTAVYYCAASPYLRFLYGGFGYWGLGTQVTVSS” it is “high polyreactivity”.
Consider “QVQLVESGGGLVQAGGSLRLSCAASGSIFGYYAMGWYRQAPGKERELVAAISGSGGSTYYADSVKGRFTMSRDNAKNTVYLQMNSLKPEDTAVYYCARVRGGYDKMYYWGQGTQVTVSS”, for which the “polyreactivity (PSR sort gate)” value was “high polyreactivity”.
On to “QVQLVESGGGLVQAGGSLRLSCAASGFTFVRYAMGWYTQAPGKERELDAAITRGGGSTYYADSVKGRFTISRDYAKNTVYLQMNSLKPEDTAVYYCAKGPGRPVSYEIPYKYNYWGQGTHVTVSS”, for which the “polyreactivity (PSR sort gate)” value is listed as “high polyreactivity”.
With “QVQLVESGGGLVQAGGSLRLICAASGRTFQYYAMGWYRQAPGKERELVAAITSGGSTYYADSVKGRFTISRDNAKNTVYLQMNSLKPEDTAVYYCAATFYYSGHDDYWGQGTQVTVSS”, the “polyreactivity (PSR sort gate)” value is reported as “low polyreactivity”.
For “QVQLVESGGGLVQAGGSLRLSCAASGITFYRKAMGWYRPAPGKEREFVAAINYGGSSTRYADSVKGRFTISRDYAKNTVYLQMNSLKPEDTAVYYCAVEKRYPRRRYDYWGQGTQVTVSS”, the “polyreactivity (PSR sort gate)” value is reported as “low polyreactivity”.
As for “QVQLLDSGGGLVQAGGSLRLSCAASGSIFYLNAMGWYRQAPVKEREFVAAITLRGGSSYYADSVKGRFTISRDYANNTFYLQMKSLKPEDTAFYYCNAGVALTYVHDGDYWGQGTQVTVSS”, the “polyreactivity (PSR sort gate)” value was “low polyreactivity”.
As for “QVQLVESGGGLVQAGGSLRLSCAASGFILSPNTMGWYRQAPGKERELVAAISSDVSTYADSVKGRFTISRDNAKNTVYLQMNSLKPEDTAVYYCNADDFGYASYEYWGQGTQVTVSS”, the “polyreactivity (PSR sort gate)” value was “low polyreactivity”.
As to “QVQLVESGGGLVQAGGSLRLSCAASGSIFRYNAMGWYRQAPGKERELVASISISDGSTYYADSVKGRFTISRDNAKNTVYLQMNSLKPEDTAVYYCAARTRDFYYPYDYWGQGTQVTVSS”, the “polyreactivity (PSR sort gate)” value is listed as “low polyreactivity”.
For “QVQLVESGVCLVQAGGSLRLSCASSGRIFKIYMGWYRQAPGKERELVAAISSGGRTYYADSVKGRFTISRDNAKNTVYLQMNSLKPEDTAVYYCAAEGTYYFRYPGPEDYDYWGLGTQVTVSS”, the “polyreactivity (PSR sort gate)” value is “high polyreactivity”.
Take “QVQLVESGGGLVQAGGSLRLSCAATGSIFYFYTMGWYRQAPGKERELVAAIDWSSGSTYYADSVKGRFTISRDNAKNTVYLQMNSLKPEDTAVYYCNARDYWTGRHDYWGQGTQVTVSS”: the “polyreactivity (PSR sort gate)” value is recorded as “low polyreactivity”.
Turning to “QVQLVESGGGLVQAGGSLRLSCAASGSTFSPNAMGWSRQAPGKERELVAAITYRGANTYYADSVKGRFTISRDNAKNTVYLQMNSLKPEDTAVYYCAAEYAYHHVGFGYWGQGTQVTVSS”, the “polyreactivity (PSR sort gate)” value was “low polyreactivity”.
The entry for “QVQLVESGGGLVQAGGSLRLSCAASGRIFSFSAMGWYRQAPGKERELVAAISYSGGRTYYADSGKGRFTISRDNAKNTVYLQMNSLKPDDTAVYDCNAGRVLRLAYNYWGQGTQVTVSS” is “low polyreactivity”; for “QVQLVESGGGLVQAGGSLRFSCAASGFIFRRYTMGWYRQAPGKERELVAAISITGSRTYYADSVKGRFTISRDNAKNTVYLQMNSLKPEDTAVYYCAARVWYAPKTLFGYDFDYWGQGTQVTVSS” it is “high polyreactivity”; for “QVQLVESGGGLVQAGGSLRLSCAASGRTFEIYAMGWYRQEPGKERELVAAITSGGSTYYADSVKGRFTISRDNAKNTVYLQMNSLKPEDTAVYYCNAYLYYDAHGVDYWGQGTQVTVSS” it is “high polyreactivity”.
